Assays:
Test in all cases: ELISA, receptor coated at 10 µg/mL, anti-human Fc-HRP
B27-β2m-Fc = biological target: T1, B27-β2m-Fc (human, UniProt P61769 21-119)
T1 construct: HLA-Fc heavy chain with beta2m, made in CHO cells; also called B2705-β2m-Fc; HLA-β2m-Fc; not shown: human IgG4 Fc (human IgG4-Fc vector, InvivoGen)
Description: (§1) Competition ELISA assays were performed using Maxisorp (Nunc, Switzerland) 96 well plates coated with 10 μg/mL of selected leukocyte receptors (human KIR3DL1, human KIR3DL2, human KIR3DL3, human LILRB1, human LILRB2, human PTPRJ and mouse Pirb) purchased from Creative Biomart. Receptors were incubated for ON 4° C., blocked with 5% milk powder-TBS 2 hrs. HLA_2-Fc selected constructs (A25_2-Fc, A30_2-Fc, B2705_2-Fc, B53_2-Fc, B57_2-Fc, B58_2-Fc, C08_2-F, and C12_2-Fc) and their controls (A25-β2m-Fc, A30-β2m-Fc, B2705-β2m-Fc, B53-β2m-Fc, B57-β2m-Fc, B58-β2m-Fc, C08-β2m-Fc and C12-β2m-Fc) and isotype IgG4 were added at 10 μg/mL for 2 hrs RT. HRP-conjugated antibodies against human Fc were used as detectors.

B58-β2m-Fc = biological target: T2, B58-β2m-Fc (human, UniProt P61769 21-119, limits assumed)
T2 construct: HLA-Fc heavy chain with beta2m, made in CHO cells; also called HLA-β2m-Fc; control MHC-Ia heterotrimer; not shown: human IgG4 Fc (human IgG4-Fc vector, InvivoGen)
Description: as §1

A25-β2m-Fc = biological target: T3, A25-β2m-Fc (human, UniProt P61769 21-119, limits assumed)
T3 construct: HLA-Fc heavy chain with beta2m, made in CHO cells; also called HLA-β2m-Fc; control MHC-Ia heterotrimer; not shown: human IgG4 Fc (human IgG4-Fc vector, InvivoGen)
Description: as §1

A30-β2m-Fc = biological target: T4, A30-β2m-Fc (human, UniProt P61769 21-119)
T4 construct: HLA-Fc heavy chain with beta2m, made in CHO cells; also called HLA-β2m-Fc; control MHC-Ia heterotrimer; not shown: human IgG4 Fc (human IgG4-Fc vector, InvivoGen)
Description: as §1

B53-β2m-Fc = biological target: T5, B53-β2m-Fc (human, UniProt P61769 21-119, limits assumed)
T5 construct: HLA-Fc heavy chain with beta2m, made in CHO cells; also called HLA-β2m-Fc; control MHC-Ia heterotrimer; not shown: human IgG4 Fc (human IgG4-Fc vector, InvivoGen)
Description: as §1

B57-β2m-Fc = biological target: T6, B57-β2m-Fc (human, UniProt P61769 21-119, limits assumed)
T6 construct: HLA-Fc heavy chain with beta2m, made in CHO cells; also called HLA-β2m-Fc; control MHC-Ia heterotrimer; not shown: human IgG4 Fc (human IgG4-Fc vector, InvivoGen)
Description: as §1

binding result (B27-β2m-Fc): no binding (tested: 10 µg/mL)
binding result (B58-β2m-Fc): no binding (tested: 10 µg/mL)
binding result (A25-β2m-Fc): no binding (tested: 10 µg/mL)
binding result (A30-β2m-Fc): no binding (tested: 10 µg/mL)
binding result (B53-β2m-Fc): no binding (tested: 10 µg/mL)
binding result (B57-β2m-Fc): no binding (tested: 10 µg/mL)
B1: human KIR3DL2 (receptor, UniProt P43630 22-340, looked up)
chain: LMGGQDKPFLSARPSTVVPRGGHVALQCHYRRGFNNFMLYKEDRSHVPIFHGRIFQESFIMGPVTPAHAGTYRCRGSRPHSLTGWSAPSNPLVIMVTGNHRKPSLLAHPGPLLKSGETVILQCWSDVMFEHFFLHREGISEDPSRLVGQIHDGVSKANFSIGPLMPVLAGTYRCYGSVPHSPYQLSAPSDPLDIVITGLYEKPSLSAQPGPTVQAGENVTLSCSSWSSYDIYHLSREGEAHERRLRAVPKVNRTFQADFPLGPATHGGTYRCFGSFRALPCVWSNSSDPLLVSVTGNPSSSWPSPTEPSSKSGICRHLH
notes: Bought protein coated on the ELISA plate; also called hu KIR3DL2

From patent US11279747 (UNIVERSITAT ZURICH, dated 2022)
